This passage reports Kd results from publication PMC3351189 (Nucleic Acids Research, 2012).

For this assay, the target named is WD-repeat protein-5 (WDR5), S22-334 (UniProt P61964 22-334). Put plainly: ITC. On the technique in general: In ITC the heat of successive injections is recorded.
Broadly, the Kd is the free concentration of one partner at which half of the binding sites on the other are occupied at equilibrium, for simple one-to-one binding. A lower Kd goes with higher affinity. With GCARSEGFYTI [SET1B Win motif peptide (SET1BWin)], the dissociation constant Kd turned out to be 100 nM.
For GSARAEPKMSA [MLL3 Win motif peptide (MLL3Win), C4708S substituted], the dissociation constant Kd was 2030 nM.
In turn, GAARAEVYLRK [MLL4 Win motif peptide (MLL4Win)] registered a Kd of 30 nM.
Under GCARSEPKILT [MLL2 Win motif peptide (MLL2Win)] stands 160 nM; under GSARAEVHLRK [MLL1 Win motif peptide (MLL1Win)], 1130 nM; under GSARSEGYYPI [SET1A Win motif peptide (SET1AWin)], 260 nM.
